This is an account of results in paper PMC6166240.

Like-named read-outs stand apart in the source and are kept apart here.

What all share (experiment): X-ray crystallography
The target in data set [1] is T1, AbdB homeodomain with W motif (crystal construct);Exd homeodomain (crystal construct) (Drosophila;Drosophila, UniProt P09087-2;P40427 ;, |).
For data set [2], the target named is T1, AbdB homeodomain with W motif (crystal …). This is another data set of the same source.
Data set [3] has the same target. The source holds these as a separate data set.
Data set [4] addresses AbdB homeodomain with W motif (crystal construct) (Drosophila, UniProt P09087-2).
The target of data set [5] is T1, AbdB homeodomain with W motif (crystal …). The source holds these as a separate data set.

T1 sequence (P09087 369-452, chain 1 of 2): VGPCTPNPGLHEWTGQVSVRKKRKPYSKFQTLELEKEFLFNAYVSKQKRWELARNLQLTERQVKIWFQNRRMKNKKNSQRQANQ
T1 sequence (P40427 237-310, chain 2 of 2): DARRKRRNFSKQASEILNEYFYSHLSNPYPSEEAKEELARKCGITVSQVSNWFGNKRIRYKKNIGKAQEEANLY
AbdB homeodomain with W motif (crystal construct), sequence (P09087 369-452): as the sequence (P09087 369-452, chain 1 of 2) above

B1: blue (crystal) (dsDNA)
DNA 1: GCATGATTAATGAC
DNA 2: GTCATTAATCATGC
For B1, the binding result in data set [1] is on record as “binds”.

B2: magenta (crystal) (dsDNA)
DNA 1: GCATGATTACGAC
DNA 2: GTCGTAATCATGC
As to B2, the binding result in data set [2] is listed as “binds”.

B3: red (crystal) (dsDNA)
DNA 1: GCATGATTTATGAC
DNA 2: GTCATAAATCATGC
With B3, in data set [3], the binding result is “binds”.

B4: black (crystal) (dsDNA)
DNA 1: GCATGATAAATGAC
DNA 2: GTCATTTATCATGC
Consider B4, for which the binding result in data set [4] and in data set [5] was “binds” in each case.
